Measured values as given in paper PMC10086132, “Riboflavin kinase and pyridoxine 5′-phosphate oxidase complex formation envisages transient interactions for FMN cofactor delivery” (Frontiers in Molecular Biosciences, 2023).

Legend:
[1] = molecular target: T1, PNPOx (pyridoxine-5′-phosphate oxidase; aPNPOx for the apo-form) (Homo sapiens, UniProt Q9NVS9); assay: stopped-flow flavin fluorescence quenching; assay type: binding; details: faster of two association processes, 20 mM PIPES pH 7.0, 0.3 mM MgCl2, 25 °C
T1 construct: gene PNPO; pET28a(+) in Escherichia coli, HisTrap-purified, tag removal not mentioned; homodimer; FMN removed for the apo-form
T1 sequence (Q9NVS9 1-261): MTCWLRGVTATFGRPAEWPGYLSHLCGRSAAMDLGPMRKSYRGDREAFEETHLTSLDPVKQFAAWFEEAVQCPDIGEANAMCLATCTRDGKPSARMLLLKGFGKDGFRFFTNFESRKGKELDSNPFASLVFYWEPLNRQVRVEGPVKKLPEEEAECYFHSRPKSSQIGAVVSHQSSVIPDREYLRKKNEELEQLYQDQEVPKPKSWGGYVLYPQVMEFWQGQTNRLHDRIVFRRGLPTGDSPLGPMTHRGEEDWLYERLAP

[2] = molecular target: T2, RFK (riboflavin kinase; hRFK when loaded with FMN:ADP:Mg2+) (Homo sapiens, UniProt Q969G6); assay: thermal unfolding followed by Trp and FMN fluorescence; assay type: binding; details: FMN bound together with ADP:Mg2+ (hRFK) versus ligand-free RFK; 20 mM PIPES pH 7.0
T2 construct: recombinant, purified in apo-form by a previously described procedure
T2 sequence (Q969G6 1-155): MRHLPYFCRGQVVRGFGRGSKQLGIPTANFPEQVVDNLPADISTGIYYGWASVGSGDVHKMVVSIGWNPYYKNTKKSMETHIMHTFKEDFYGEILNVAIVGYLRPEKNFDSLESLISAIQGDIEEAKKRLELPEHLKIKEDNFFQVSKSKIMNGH

[3] = molecular target: T1, PNPOx (pyridoxine-5′-phosphate oxidase; aPNPOx for the apo-form); assay: as above; assay type: binding; details: holo-form versus apo-form; 20 mM PIPES pH 7.0
RFK [4] = molecular target: T3, RFK (Homo sapiens, UniProt Q969G6); assay: ITC
T3 chain: T2 sequence (Q969G6 1-155)

RFK [5] = molecular target: T3, RFK; assay: stopped-flow fluorescence
purified protein = substrate: Cc1cc2nc3c(=O)[nH]c(=O)nc-3n(C[C@H](O)[C@H](O)[C@H](O)CO)c2cc1C; assay: purified protein; details: no aPNPOx, 400 µM ATP, 0.3 mM MgCl2, 20 mM PIPES pH 7.0, 25 °C

`Cc1cc2nc3c(=O)[nH]c(=O)nc-3n(C[C@H](O)[C@H](O)[C@H](O)COP(=O)(O)O)c2cc1C` [FMN] was tested, and the “k on1 ^FMN” value [1] was 0.34 ± 0.02 s⁻¹ µM⁻¹, the “increase of Tm” value [2] was ~ 32 °C and the “increase of Tm” value [3] was “Both proteins were considerably less stable in apo-forms regarding their respective holo-forms”.

B1: PNPOx (protein)
chain: T1 sequence (Q9NVS9 1-261)
modifications: apo-PNPOx homodimer; ligand-free RFK
B1 showed a Kd (RFK [4]) of 14000 nM.

B2: PNPOx (protein)
chain: T1 sequence (Q9NVS9 1-261)
modifications: apo-PNPOx homodimer; RFK loaded with FMN and ADP:Mg2+
B2 gave a Kd (RFK [4]) of 900 nM and a Kd (RFK [5]) of ~1000 nM.

B3: PNPOx (protein)
chain: T1 sequence (Q9NVS9 1-261)
modifications: holo-PNPOx homodimer with FMN; RFK loaded with FMN and ADP:Mg2+; first binding site
For B3, the Kd (RFK [4]) was 130 nM.

B4: RFK (riboflavin kinase; hRFK when loaded with FMN:ADP:Mg2+) (Homo sapiens) (protein)
chain: T2 sequence (Q969G6 1-155)
Molecule B4 has a Km (purified protein) of 2.2 ± 0.3 µM, a kcat (purified protein) of 1 s⁻¹ and a kcat/Km (purified protein) of 450000 M⁻¹ s⁻¹.
